Test results reported in PMC9482650, “Quantitative fragmentomics allow affinity mapping of interactomes” (Nature Communications, 2022).

T1: GRIP1_5, Q9Y3R0
T1 sequence (Q9Y3R0 568-668, limits assumed, looked up): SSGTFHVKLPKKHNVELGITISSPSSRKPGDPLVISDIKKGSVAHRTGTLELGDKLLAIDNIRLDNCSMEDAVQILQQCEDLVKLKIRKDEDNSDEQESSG

T2: NHERF3_4, Q5T2W1
T2 sequence (Q5T2W1 373-468, limits assumed, looked up): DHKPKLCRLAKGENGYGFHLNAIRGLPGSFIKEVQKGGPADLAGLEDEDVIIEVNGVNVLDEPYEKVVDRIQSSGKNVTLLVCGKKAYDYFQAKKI

T3: LNX2_2, Q8N448
T3 sequence (Q8N448 334-432, limits assumed, looked up): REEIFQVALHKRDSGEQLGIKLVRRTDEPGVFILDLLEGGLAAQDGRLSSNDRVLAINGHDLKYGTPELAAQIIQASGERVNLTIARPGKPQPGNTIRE

T4: DLG3_2, Q92796
T4 sequence (Q92796 221-321, limits assumed, looked up): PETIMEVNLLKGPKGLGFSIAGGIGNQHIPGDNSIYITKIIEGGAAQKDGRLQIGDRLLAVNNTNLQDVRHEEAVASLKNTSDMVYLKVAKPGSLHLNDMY

T5: SIPA1L2, Q9P2F8
T5 sequence (Q9P2F8 945-1036, limits assumed, looked up): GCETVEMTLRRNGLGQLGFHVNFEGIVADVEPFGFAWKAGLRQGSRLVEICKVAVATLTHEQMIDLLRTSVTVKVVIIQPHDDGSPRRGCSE

T6: MPP2, Q14168
T6 sequence (Q14168 180-250, limits assumed, looked up): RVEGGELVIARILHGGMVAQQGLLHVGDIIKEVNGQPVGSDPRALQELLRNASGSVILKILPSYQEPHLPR

T7: TIAM2, Q8IVF5
T7 sequence (Q8IVF5 885-986, limits assumed, looked up): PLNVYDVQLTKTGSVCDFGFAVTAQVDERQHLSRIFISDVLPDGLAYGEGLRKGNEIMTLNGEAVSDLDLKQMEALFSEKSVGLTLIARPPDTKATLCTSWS

T8: LRRC7, Q96NW7
T8 sequence (Q96NW7 1440-1537, limits assumed, looked up): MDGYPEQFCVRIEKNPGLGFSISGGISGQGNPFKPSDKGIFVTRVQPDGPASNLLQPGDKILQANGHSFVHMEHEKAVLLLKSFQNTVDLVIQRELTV

T9: RADIL, Q96JH8
T9 sequence (Q96JH8 971-1071, limits assumed, looked up): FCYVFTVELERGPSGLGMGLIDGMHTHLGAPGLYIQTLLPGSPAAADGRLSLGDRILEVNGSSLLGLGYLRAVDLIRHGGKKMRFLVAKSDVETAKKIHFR

T10: APBA1_2, Q02410
T10 sequence (Q02410 742-832, limits assumed, looked up): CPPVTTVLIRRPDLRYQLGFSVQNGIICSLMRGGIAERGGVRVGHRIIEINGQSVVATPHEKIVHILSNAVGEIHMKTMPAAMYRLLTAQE

T11: APBA2_2, Q99767
T11 sequence (Q99767 654-744, limits assumed, looked up): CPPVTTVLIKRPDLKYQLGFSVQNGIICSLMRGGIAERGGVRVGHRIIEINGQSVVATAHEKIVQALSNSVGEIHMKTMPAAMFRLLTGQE

T12: APBA2_1, Q99767
T12 sequence (Q99767 563-664, limits assumed, looked up): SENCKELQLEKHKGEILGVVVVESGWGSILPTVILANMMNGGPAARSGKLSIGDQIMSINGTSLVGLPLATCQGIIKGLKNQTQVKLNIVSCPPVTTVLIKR

T13: FRMPD1, Q5SYB0
T13 sequence (Q5SYB0 52-145, limits assumed, looked up): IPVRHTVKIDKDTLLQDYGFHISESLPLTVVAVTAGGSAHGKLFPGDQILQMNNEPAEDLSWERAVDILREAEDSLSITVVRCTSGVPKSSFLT


How the values were obtained:
Assay in all cases: holdup assay
Parameters in all cases: key: below the threshold = too weak to quantify, mostly under pKd 3.1 to 4
Conditions in all cases: plain residues with an end cap or a label only (N-terminal biotin on a linker: ado-ado)
[1] = target: T1, GRIP1_5, Q9Y3R0
[2] = target: DLG4_1, P78352
[3] = target: T2, NHERF3_4, Q5T2W1
[4] = target: T3, LNX2_2, Q8N448
[5] = target: T4, DLG3_2, Q92796
[6] = target: MAGI2_5, Q86UL8
[7] = target: T5, SIPA1L2, Q9P2F8
[8] = target: MAST2, Q6P0Q8
[9] = target: FRMPD3, Q5JV73
[10] = target: LNX1_2, Q8TBB1
[11] = target: TJP1_2, Q07157
[12] = target: T6, MPP2, Q14168
[13] = target: T7, TIAM2, Q8IVF5
[14] = target: PDLIM1, O00151
[15] = target: MAGI2_4, Q86UL8
[16] = target: SCRIB_3, Q14160
[17] = target: GRIP2_5, Q9C0E4
[18] = target: T8, LRRC7, Q96NW7
[19] = target: T9, RADIL, Q96JH8
[20] = target: T10, APBA1_2, Q02410
[21] = target: T11, APBA2_2, Q99767
[22] = target: NOS1, P29475
[23] = target: T12, APBA2_1, Q99767
[24] = target: T13, FRMPD1, Q5SYB0
[25] = target: Inadl_6, Q8NI35
Inadl_6, Q8NI35, sequence (Q8NI35 1058-1167): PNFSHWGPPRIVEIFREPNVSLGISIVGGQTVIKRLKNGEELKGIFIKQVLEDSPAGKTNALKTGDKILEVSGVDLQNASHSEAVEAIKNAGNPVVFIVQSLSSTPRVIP

FRMPD3, Q5JV73, sequence (Q5JV73 12-100): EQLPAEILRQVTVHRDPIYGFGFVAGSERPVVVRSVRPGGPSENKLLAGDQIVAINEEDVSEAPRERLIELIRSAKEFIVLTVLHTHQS
LNX1_2, Q8TBB1, sequence (Q8TBB1 371-470): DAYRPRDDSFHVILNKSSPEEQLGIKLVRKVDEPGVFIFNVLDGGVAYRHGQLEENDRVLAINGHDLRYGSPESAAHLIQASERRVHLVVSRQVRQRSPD
SCRIB_3, Q14160, sequence (Q14160 999-1103): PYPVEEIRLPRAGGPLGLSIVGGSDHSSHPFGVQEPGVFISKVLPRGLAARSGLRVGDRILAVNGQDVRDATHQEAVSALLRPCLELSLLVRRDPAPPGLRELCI
NOS1, P29475, sequence (P29475 9-101): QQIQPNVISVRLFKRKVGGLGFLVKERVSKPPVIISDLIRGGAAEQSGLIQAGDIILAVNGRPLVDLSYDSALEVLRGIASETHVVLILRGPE
DLG4_1, P78352, sequence (P78352 62-152): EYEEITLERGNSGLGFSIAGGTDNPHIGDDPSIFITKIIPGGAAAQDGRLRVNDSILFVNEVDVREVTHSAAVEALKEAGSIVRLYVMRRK
MAGI2_5, Q86UL8, sequence (Q86UL8 915-1017): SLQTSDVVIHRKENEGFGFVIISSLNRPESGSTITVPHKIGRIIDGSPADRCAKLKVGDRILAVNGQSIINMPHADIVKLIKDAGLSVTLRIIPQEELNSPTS
PDLIM1, O00151, sequence (O00151 1-87): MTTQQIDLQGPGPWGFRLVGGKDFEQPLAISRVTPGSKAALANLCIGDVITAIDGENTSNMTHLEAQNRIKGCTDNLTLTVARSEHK
GRIP2_5, Q9C0E4, sequence (Q9C0E4 544-642): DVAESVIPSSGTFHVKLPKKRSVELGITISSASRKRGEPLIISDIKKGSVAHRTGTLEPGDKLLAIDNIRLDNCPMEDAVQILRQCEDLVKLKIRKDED
MAGI2_4, Q86UL8, sequence (Q86UL8 772-865): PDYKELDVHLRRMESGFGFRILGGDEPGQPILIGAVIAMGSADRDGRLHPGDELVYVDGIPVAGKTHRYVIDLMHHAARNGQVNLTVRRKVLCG
MAST2, Q6P0Q8, sequence (Q6P0Q8 1099-1202): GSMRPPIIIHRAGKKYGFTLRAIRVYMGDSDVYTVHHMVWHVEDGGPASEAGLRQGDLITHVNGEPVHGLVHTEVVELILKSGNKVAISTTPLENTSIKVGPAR
TJP1_2, Q07157, sequence (Q07157 181-274): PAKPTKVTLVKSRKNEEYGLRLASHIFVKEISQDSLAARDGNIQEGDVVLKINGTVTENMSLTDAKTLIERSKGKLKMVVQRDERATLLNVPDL

pKd [1]	pKd [2]	pKd [3]	pKd [4]	pKd [5]	pKd [6]	pKd [7]	pKd [8]	pKd [9]	pKd [10]	pKd [11]	pKd [12]	pKd [13]	pKd [14]	pKd [15]	pKd [16]	pKd [17]	pKd [18]	pKd [19]	pKd [20]	Binder	other results
below the threshold	below the threshold	below the threshold	below the threshold	4.25	below the threshold	below the threshold	4.84	below the threshold	below the threshold	below the threshold	below the threshold	3.83	below the threshold	below the threshold	4.93	below the threshold	below the threshold	below the threshold	below the threshold	SVTSERETNI [SLC16A7, O60669]	pKd [21]: below the threshold; pKd [22]: below the threshold; pKd [23]: below the threshold; pKd [24]: below the threshold; pKd [25]: below the threshold
below the threshold	below the threshold	below the threshold	3.83	4.09	below the threshold	below the threshold	5	below the threshold	below the threshold	4.32	below the threshold	3.87	below the threshold	3.67	4.29	below the threshold	below the threshold	below the threshold	below the threshold	LPAVCYDIDI [PTTG2, Q9NZH5]	pKd [21]: below the threshold; pKd [22]: below the threshold; pKd [23]: below the threshold; pKd [24]: below the threshold; pKd [25]: below the threshold
below the threshold	below the threshold	3.7	below the threshold	below the threshold	below the threshold	below the threshold	4.85	below the threshold	below the threshold	below the threshold	below the threshold	below the threshold	below the threshold	below the threshold	4.57	below the threshold	below the threshold	below the threshold	4.34	GEDRSPPTAL [MKNK1, Q9BUB5]	pKd [21]: below the threshold; pKd [22]: 3.8; pKd [23]: below the threshold; pKd [24]: below the threshold; pKd [25]: below the threshold
